These results are taken from US20240279288A1 (ANYANG INSTITUTE OF SINO COTTON INDUSTRY INNOVATION, published 2024).

Assay [1] concerns the target T1, NMYC (human, UniProt P04198 1-464).
T1 construct: In pGADT7 (AD fusion) for yeast two hybrid
T1 sequence (looked up): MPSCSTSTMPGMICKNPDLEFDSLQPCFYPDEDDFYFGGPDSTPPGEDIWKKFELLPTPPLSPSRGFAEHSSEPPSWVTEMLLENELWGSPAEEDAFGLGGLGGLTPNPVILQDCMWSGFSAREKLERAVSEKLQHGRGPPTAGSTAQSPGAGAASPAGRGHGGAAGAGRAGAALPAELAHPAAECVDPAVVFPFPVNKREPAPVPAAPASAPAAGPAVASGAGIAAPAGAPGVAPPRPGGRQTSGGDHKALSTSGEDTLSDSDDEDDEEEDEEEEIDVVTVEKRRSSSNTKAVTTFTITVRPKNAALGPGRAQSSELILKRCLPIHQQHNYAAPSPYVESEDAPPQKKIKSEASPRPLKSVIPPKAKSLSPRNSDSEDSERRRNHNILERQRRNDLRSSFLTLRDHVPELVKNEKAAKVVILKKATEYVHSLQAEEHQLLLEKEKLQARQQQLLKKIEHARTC
As to the kind of experiment: yeast two hybrid.

For assay [2], the target named is T2, uPAR-D1D2 (Homo sapiens (Human), UniProt Q03405 23-335, limits assumed).
T2 construct: It is tied to 'D3 domain deficient uPAR' by its name only; also called D3 domain deficient uPAR
T2 sequence (Q03405 other isoform, or with tags, fused parts or gaps limits assumed): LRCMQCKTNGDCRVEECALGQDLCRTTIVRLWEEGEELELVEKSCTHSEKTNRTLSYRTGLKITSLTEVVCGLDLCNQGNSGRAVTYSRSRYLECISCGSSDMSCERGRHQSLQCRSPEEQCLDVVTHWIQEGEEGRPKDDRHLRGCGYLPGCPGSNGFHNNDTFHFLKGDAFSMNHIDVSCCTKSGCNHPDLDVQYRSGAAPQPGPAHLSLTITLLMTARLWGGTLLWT
As to the kind of experiment: yeast two hybrid.

Assay [3] addresses T3, GhNINJA (cotton).
T3 chain: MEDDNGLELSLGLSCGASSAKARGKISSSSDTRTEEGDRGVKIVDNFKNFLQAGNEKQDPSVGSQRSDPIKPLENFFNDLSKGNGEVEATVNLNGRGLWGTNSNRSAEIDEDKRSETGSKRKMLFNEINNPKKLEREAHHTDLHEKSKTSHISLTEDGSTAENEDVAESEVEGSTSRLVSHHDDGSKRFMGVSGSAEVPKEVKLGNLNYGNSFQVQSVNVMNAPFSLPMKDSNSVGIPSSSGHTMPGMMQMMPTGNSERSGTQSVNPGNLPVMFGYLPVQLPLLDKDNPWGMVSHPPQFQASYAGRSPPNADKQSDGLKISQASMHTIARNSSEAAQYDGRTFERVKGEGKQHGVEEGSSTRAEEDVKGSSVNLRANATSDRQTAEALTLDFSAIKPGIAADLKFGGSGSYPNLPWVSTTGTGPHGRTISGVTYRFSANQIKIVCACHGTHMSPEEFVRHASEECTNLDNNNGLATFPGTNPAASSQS
As to the kind of experiment: yeast two hybrid.

Assay [4] deals with T4, GhTPL (cotton).
T4 chain: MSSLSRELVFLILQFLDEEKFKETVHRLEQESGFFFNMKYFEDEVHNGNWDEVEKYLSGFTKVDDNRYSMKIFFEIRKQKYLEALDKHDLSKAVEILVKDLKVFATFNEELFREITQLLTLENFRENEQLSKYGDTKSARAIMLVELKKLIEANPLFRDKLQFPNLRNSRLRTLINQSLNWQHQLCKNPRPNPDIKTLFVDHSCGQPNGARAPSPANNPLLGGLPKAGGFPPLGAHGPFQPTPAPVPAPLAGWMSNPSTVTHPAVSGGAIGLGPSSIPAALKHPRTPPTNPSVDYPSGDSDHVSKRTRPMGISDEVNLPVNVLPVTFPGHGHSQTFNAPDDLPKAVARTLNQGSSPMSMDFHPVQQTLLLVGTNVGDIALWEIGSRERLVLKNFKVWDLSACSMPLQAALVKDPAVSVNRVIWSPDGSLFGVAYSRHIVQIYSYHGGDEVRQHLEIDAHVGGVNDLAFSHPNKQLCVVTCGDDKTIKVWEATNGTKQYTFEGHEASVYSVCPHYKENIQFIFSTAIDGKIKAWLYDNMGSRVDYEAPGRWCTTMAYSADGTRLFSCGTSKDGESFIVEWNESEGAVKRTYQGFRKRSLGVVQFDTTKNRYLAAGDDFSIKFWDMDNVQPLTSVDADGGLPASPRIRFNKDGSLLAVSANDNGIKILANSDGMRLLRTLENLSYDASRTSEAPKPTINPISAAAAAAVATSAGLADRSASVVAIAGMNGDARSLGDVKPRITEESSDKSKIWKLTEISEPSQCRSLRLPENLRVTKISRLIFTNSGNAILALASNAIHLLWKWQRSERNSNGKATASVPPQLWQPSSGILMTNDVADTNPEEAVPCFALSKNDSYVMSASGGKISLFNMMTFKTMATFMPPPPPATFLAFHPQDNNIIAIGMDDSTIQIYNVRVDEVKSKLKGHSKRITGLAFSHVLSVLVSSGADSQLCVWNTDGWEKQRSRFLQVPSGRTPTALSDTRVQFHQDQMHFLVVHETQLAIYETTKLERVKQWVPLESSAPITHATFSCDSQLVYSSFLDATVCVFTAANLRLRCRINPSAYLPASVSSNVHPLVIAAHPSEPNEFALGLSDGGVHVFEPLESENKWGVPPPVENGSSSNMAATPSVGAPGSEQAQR
The assay can be described thus: yeast two hybrid.

In assay [5] the target is T5, GhHDA6 (cotton).
T5 chain: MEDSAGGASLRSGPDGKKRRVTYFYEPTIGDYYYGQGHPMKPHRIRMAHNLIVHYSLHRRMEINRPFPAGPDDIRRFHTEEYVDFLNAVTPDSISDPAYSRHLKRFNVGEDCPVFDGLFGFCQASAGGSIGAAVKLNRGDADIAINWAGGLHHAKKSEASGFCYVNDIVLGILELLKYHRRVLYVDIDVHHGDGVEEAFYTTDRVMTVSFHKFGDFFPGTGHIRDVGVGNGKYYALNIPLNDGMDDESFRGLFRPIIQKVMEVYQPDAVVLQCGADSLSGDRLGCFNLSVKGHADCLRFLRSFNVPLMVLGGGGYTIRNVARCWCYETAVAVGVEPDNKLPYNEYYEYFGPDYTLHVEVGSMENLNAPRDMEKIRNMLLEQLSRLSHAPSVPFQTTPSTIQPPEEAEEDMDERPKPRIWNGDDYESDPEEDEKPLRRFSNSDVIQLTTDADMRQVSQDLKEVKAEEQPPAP
The assay can be described thus: yeast two hybrid.

Assay [6] addresses T6, c-Myc-150aa (human, UniProt P01106 1-150).
T6 construct: Also tested by LUC, for which the construct is not described; also called first 150 amino acids truncated c-Myc
The assay can be described thus: luciferase complementation (FIG. 13 E).

The target of assay [7] is T7, c-Myc-215aa (human, UniProt P01106 1-215).
T7 construct: Also tested by LUC, for which the construct is not described
T7 sequence (P01106 1-215 limits assumed): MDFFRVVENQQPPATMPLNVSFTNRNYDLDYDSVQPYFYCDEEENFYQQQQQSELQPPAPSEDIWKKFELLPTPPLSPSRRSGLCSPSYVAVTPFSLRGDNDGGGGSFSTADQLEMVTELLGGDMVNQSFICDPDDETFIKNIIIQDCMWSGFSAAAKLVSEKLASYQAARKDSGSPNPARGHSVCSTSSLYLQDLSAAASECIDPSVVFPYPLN
As to the kind of experiment: luciferase complementation (FIG. 13 E).

Assay [8] has as its target T8, GhCOI1 (cotton).
T8 chain: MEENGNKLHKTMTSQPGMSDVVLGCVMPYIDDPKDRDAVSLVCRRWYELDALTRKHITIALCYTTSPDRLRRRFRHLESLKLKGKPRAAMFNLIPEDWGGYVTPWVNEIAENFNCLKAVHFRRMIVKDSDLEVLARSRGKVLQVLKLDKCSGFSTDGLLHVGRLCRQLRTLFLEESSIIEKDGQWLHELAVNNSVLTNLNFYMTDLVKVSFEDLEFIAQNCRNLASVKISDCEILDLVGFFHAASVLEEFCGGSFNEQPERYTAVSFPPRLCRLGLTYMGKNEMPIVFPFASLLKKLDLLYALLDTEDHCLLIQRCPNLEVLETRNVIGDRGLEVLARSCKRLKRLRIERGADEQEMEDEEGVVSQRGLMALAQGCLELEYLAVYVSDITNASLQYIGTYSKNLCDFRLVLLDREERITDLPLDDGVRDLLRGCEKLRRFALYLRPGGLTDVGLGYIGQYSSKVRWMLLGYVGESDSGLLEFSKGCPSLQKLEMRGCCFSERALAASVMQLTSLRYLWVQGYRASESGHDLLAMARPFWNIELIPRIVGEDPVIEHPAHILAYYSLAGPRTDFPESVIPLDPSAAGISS
The assay can be described thus: yeast two hybrid, JA-Ile in the medium. The procedure: The study on Arabidopsis had shown that the inhibition of JAZ protein on JA signaling was mainly achieved by inhibiting the transcription factor function of MYC, which had been experimentally verified by us in cotton. Based on the phylogenetic tree of Arabidopsis and cotton JAZs, we screened 6 cotton JAZs (GhJAZ1, GhJAZ7, GhJAZ9, GhJAZ10, GhJAZ11 and GhJAZ31), which were analyzed with GhMYC2, GhNINJA, GhTPL, GhHDA6, and GhCOI1 for yeast two hybrid. The amino acid sequence of GhJAZ1 was set forth in SEQ ID No. 4, and the corresponding encoding gene sequence was set forth in SEQ ID No. 39; the amino acid sequence of GhJAZ7 was set forth in SEQ ID No. 7, and the corresponding encoding gene sequence was set forth in SEQ ID No. 42; the amino acid sequence of GhJAZ9 was set forth in SEQ ID No. 2, and the corresponding encoding gene sequence was set forth in SEQ ID No. 37; the amino acid sequence of GhJAZ10 was set forth in SEQ ID No. 3, and the corresponding encoding gene sequence was set forth in SEQ ID No. 38; the amino acid sequence of GhJAZ11 was set forth in SEQ ID No. 5, and the corresponding encoding gene sequence was set forth in SEQ ID No. 40; and the amino acid sequence of GhJAZ31 was set forth in SEQ ID No. 9, and the corresponding encoding gene sequence was set forth in SEQ ID No. 44. […]

The target in assay [9] is GhMYC2 (cotton). The assay can be described thus: luciferase complementation in tobacco leaves (FIG. 5B). The procedure: The constructed plasmids were then transformed into Agrobacterium GV3101 (pSoup-p19) (Shanghai Weidi Company, Cat. No.: AC1003), and placed successively on ice for 5 min, in liquid nitrogen for 5 min, in water bath at 37° C. for 5 min, and on ice for 5 min, and then LB liquid medium was added for cultivation at 28° C. and 220 rpm for 2-3 h, followed by plating onto LB solid plates containing corresponding antibiotics (kanamycin+rifampicin) for cultivation at 28° C. for 2-3 days. Positive monoclonal clones were picked for cultivation after colonies grown out. The corresponding NLUC and CLUC vectors then were mixed and injected into tobacco leaves (1 day in the dark/1 day in the light). Luciferase substrates were applied at the infected leaves before taking images and placed in a dark room for at least 6 min to quench fluorescence, followed by observation on the Nightowl-II LB983 instrument, using IndigoBasic software under the luciferase-5 min setting conditions.
GhMYC2 (cotton), sequence (chain, as listed by the source limits assumed): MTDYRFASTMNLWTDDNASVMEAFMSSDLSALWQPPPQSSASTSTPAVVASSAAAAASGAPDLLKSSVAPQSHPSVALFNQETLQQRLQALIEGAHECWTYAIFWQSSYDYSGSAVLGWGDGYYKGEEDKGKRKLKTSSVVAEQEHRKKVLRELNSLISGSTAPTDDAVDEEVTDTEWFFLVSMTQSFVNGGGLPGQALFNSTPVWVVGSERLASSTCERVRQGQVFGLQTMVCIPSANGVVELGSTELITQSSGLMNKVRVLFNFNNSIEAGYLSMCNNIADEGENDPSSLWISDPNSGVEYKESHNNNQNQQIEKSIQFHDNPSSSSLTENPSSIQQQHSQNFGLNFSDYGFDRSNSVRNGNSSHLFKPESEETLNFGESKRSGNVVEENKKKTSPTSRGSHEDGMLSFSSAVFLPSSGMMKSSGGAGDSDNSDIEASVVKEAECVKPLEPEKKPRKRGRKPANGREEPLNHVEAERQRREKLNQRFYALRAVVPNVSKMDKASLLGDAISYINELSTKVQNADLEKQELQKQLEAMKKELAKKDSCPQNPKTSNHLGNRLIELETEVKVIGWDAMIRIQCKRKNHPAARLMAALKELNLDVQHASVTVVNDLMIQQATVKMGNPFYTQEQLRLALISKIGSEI

Assay [10] has as its target T9, c-Myc (human, UniProt P01106 1-454, limits assumed).
T9 construct: In pGADT7 (AD fusion) for yeast two hybrid, pCAMBIA-NLuc for LUC, pUC-SPYCE for BiFC; also called proto-oncogene c-Myc; full length of c-Myc
The assay can be described thus: luciferase complementation in tobacco leaves (FIG. 6F). From the text: Using the method of LUC experiment, c-Myc (NCBI accession number: NM_002467.6) was subcloned to pCAMBIA NLuc vector (Chen, H., et al. “Firefly Luciferase Complementation Imaging Assay for Protein-Protein Interactions in Plants.” Plant Physiology 146.2(2008):368-376.) between the KpnI and SalI cleavage sites, and GhJAZ1 (SEQ ID No. 39) was subcloned to pCAMBIA-CLuc vector (Chen, H., et al. “Firefly Luciferase Complementation Imaging Assay for Protein-Protein Interactions in Plants.” Plant Physiology 146.2(2008):368-376.) between the KpnI and SalI cleavage sites. The constructed recombinant plasmids verified to be positive by sequencing were transformed into Agrobacterium GV3101 (pSoup-p19) (Shanghai Weidi biology technology co., Ltd, Cat. No.: AC1003), which were co-transfected into tobacco leaves. 2-3 days after injection, the infected leaves coated with the fluorescent substrate were placed in a dark chamber of the instrument for at least 6 min before taking images to quench fluorescence, followed by observation on the Nightowl-II LB983 instrument, using IndigoBasic software under the luciferase-5 min setting conditions. Cultivation was performed after co-infection. If there is interaction, LUC luciferase is expressed, and luminescence is detected after substrate application. As shown in F in FIG. 6, GhJAZ1 interacts with c-Myc.

T6 sequence (P01106 1-150 limits assumed): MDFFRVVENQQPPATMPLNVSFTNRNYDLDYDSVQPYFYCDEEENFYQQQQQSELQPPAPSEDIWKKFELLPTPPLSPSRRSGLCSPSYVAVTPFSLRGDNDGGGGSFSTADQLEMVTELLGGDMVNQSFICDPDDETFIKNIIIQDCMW
T9 sequence (P01106 whole entry, the tested form may be a part): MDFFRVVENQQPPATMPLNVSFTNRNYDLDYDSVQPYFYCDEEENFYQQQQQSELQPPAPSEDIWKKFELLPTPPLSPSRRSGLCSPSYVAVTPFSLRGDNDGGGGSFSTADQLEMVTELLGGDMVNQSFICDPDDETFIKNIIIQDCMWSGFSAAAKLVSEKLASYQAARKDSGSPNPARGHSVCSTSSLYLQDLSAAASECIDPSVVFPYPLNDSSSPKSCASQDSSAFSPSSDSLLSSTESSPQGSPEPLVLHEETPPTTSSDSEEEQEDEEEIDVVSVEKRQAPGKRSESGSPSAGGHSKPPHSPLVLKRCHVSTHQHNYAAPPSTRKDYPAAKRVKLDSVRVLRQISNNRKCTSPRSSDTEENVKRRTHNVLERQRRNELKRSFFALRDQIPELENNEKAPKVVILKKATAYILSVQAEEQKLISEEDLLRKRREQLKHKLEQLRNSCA

B1: GhJAZ1 (other)
chain: MSSCSESTAMKPARSPEKPSFAQTCNLLSQYLKEKGSFGDLSLGMTCNVEANGTPVVPPPTMNLFPLNDKSDDVCGRNGGNPKNLTSMDLFPQQAGLASKDDSPNKLEPQTAPMTIFYGGQVIVFNDFPANKAKEIMLLASNSSSQSNNSFNPIPFTSSIARSPIESSIGVPPTSKPVHPAQRAVPGDLPIARRASLHRFLEKRKDRITAKAPYQINNSAAAPSLSGDNKSWLGLAAQSP
notes: In yeast two hybrid it was expressed from pGBKT7 (BD fusion), in the luciferase experiment from pCAMBIA-CLuc, in BiFC from pUC-SPYNE; also called cotton JAZ1
With B1, the binding result in assay [1] is on record as “binds”; in assay [2], “no binding”; in [3], “binds”; in assay [4], “binds”; in assay [5], “binds”; in [6], “binds”. Moreover, the binding result in assay [7], in assay [8], in assay [9] and in assay [10] was “binds” in each case.
